T1: Macaca fascicularis PDGFRb.mmh (Macaca fascicularis)
T1 construct: Soluble monomeric construct; also called mfPDGFRb.mmh
T1 chain: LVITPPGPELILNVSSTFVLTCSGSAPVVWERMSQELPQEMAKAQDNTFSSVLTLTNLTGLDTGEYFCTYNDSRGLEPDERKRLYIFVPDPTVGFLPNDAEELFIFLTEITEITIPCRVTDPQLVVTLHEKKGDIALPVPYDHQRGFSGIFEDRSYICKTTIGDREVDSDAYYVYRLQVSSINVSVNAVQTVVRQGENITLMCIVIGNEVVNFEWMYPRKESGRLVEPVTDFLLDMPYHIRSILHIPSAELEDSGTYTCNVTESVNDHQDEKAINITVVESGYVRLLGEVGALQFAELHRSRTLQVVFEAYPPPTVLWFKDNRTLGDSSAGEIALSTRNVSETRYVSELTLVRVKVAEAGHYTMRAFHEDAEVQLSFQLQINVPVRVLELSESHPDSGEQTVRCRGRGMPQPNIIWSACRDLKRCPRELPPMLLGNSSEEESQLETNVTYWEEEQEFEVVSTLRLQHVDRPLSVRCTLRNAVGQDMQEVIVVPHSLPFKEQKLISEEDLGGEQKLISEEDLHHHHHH

T2: PDGFR-beta extracellular domain construct D1-D2 (human)
T2 construct: also called D1-2
T2 chain: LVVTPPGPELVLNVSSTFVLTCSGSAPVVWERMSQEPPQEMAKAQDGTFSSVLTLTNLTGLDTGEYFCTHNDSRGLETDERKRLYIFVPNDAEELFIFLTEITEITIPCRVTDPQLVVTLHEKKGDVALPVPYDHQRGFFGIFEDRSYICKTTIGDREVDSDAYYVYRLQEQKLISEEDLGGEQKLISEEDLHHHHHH

T3: PDGFR-beta extracellular domain construct D1-D4 (human)
T3 construct: also called D1-4
T3 chain: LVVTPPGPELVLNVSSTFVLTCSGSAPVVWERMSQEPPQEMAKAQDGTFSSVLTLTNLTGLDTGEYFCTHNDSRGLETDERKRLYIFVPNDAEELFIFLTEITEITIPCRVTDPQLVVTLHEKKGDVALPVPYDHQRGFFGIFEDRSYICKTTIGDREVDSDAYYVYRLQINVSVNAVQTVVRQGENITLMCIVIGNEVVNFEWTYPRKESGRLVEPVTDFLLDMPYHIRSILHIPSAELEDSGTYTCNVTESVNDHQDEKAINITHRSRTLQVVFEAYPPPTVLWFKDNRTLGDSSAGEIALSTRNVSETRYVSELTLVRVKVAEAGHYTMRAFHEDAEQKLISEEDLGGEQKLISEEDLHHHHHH

T4: PDGFR-beta extracellular domain construct D1-D3 (human)
T4 construct: also called D1-3
T4 chain: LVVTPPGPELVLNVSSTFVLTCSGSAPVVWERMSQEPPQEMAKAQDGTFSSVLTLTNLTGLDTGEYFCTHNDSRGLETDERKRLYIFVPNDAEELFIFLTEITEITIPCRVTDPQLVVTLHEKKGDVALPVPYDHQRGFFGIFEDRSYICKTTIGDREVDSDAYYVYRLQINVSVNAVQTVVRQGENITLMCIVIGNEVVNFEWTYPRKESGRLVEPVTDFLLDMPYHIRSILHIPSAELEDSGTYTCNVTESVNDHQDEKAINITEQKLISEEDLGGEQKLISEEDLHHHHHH

T5: PDGFR-beta extracellular domain construct D1 (human)
T5 chain: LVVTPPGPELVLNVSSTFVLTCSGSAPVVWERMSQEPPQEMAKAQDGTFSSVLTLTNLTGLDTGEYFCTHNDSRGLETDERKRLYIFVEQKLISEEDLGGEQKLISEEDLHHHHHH


Tests used:
[1] = target: T6, hPDGFRb.mmh (human, UniProt P09619 33-531); test: Octet BLI cross-competition, 25 C; hPDGFRb.mmh on anti-Penta-His tips pre-saturated with mAb-1 H4H3310N (row 9)
T6 construct: Soluble monomeric construct; also called soluble human PDGFR-beta.mmh
Experimental: A cross-competition assay was conducted to assess the ability of select antibodies to compete with one another for binding to human PDGFR-beta. […] Each PDGFR-beta.mmh-coated sensor tip was saturated for 5 min with a first anti-PDGFR-beta antibody (Mab #1; 50 μg/mL). Next, each sensor tip was saturated with a solution of a second anti-PDGFR-beta antibody (Mab #2). The real time response of Mab #2 binding to PDGR-beta.mmh pre-complexed with Mab #1 was then monitored. All assays were performed at 25° C. with a flow rate of 1000 rpm on an Octet RED384 biosensor in Octet HBST buffer according to manufacturer's instructions (ForteBio Corp., Menlo Park, Calif.). Results are illustrated in FIG. 2.

[2] = target: T1, Macaca fascicularis PDGFRb.mmh; test: SPR, mAb captured, 25 C
Experimental: (§1) Antibodies, expressed as either mouse Fc (prefix H1M; H2M) or human Fc (prefix H4H), were captured on their respective anti-Fc sensor surfaces (Mab capture format). […] Kinetic association (kₐ) and dissociation (kd) rate constants were determined by processing and fitting the data to a 1:1 binding model using Scrubber 2.0 curve fitting software.

[3] = target: T7, human PDGFRb.hFc (human); test: SPR, mAb captured, 25 C
T7 construct: Soluble dimeric construct with human Fc; also called hPDGFRb.hFc
Experimental: as §1

[4] = target: T6, hPDGFRb.mmh; test: SPR, mAb captured, 25 C
Experimental: as §1

[5] = target: T2, PDGFR-beta extracellular domain …; test: SPR, mAb captured, construct at 50nM
Experimental: (§2) Four different anti-PDGFR-beta antibodies were tested for binding to the various constructs by surface plasmon resonance (Biacore). Briefly, 150-200 RU's of anti-PDGFR beta antibody was captured via an anti-human Fc CM5 chip. Next, the individual domain constructs, or full-length PDGFR beta, was applied over the antibody-bound surface at a concentration of 50nM. The ability of the various antibodies to bind to the various domain constructs was measured. (−)=No binding observed; (+)=Binding observed; ND=Not determined.

[6] = target: T3, PDGFR-beta extracellular domain …; test: SPR, mAb captured, construct at 50nM
Experimental: as §2

[7] = target: T4, PDGFR-beta extracellular domain …; test: SPR, mAb captured, construct at 50nM
Experimental: as §2

[8] = target: T5, PDGFR-beta extracellular domain …; test: SPR, mAb captured, construct as analyte
Experimental: as §2

[9] = target: T2, PDGFR-beta extracellular domain …; test: SPR, mAb captured, construct as analyte
Experimental: as §2

[10] = target: T4, PDGFR-beta extracellular domain …; test: SPR, mAb captured, construct as analyte
Experimental: as §2

Binder	Response of mAb-2 Binding to hPDGFRβ.mmh Pre-Complexed with mAb-1 (nm) [1]	Kd [2]	koff [2]	kon [2]	t1/2 [2]	Kd [3]	koff [3]	kon [3]	t1/2 [3]	Kd [4]	koff [4]	kon [4]	t1/2 [4]	binding result [5]	binding result [6]	binding result [7]	binding result [8]	binding result [9]	binding result [10]
H4H3094P (antibody, human IgG4, V domains shown, also called H4H3394P) VH: EVQLVESGGGLVQPGGSLRLSCAASGFTFSSYWMSWVRQAPGKGLEWVANMNQDGSETHYVDSVKGRLSISRDNAKKSLFLHMNSLRAEDTAVYFCARDLVPPRQDDYYYYFGMDVWGHGTTVTVSS VL: DIQMTQSPSTLSASVGDRVTITCRASQSISDWLAWYQQKPGKAPKLLIFKASTLESGVPSRFSGSGSGTEFTLTISSLQPDDFATYYCQQYNSYSRTFGQGTKVEIK	0.25 nm	1.63 nM	0.000289 s⁻¹	177000 M⁻¹ s⁻¹	0.667 h	0.256 nM	6.2e-05 s⁻¹	242000 M⁻¹ s⁻¹	3.1 h	1.56 nM	0.000257 s⁻¹	165000 M⁻¹ s⁻¹	0.75 h	binds	binds	binds	no binding (tested: 50nM)	–	–
H4H3099S (antibody, human IgG4, V domains shown, human IgG4 Fc (H4H prefix)) VH: QITLKESGPTLVKPTQTLTLTCTFSGFSLTTTGVGVGWIRQPPGKALEWLALIYWNDLKRYSPSLKNRLTITKDTSRHQVVLTMTNMDPMDTATYYCAHRPLYYGSGSGWFDPWGPGTTVTVSS VL: not shown	–	0.987 nM	0.000164 s⁻¹	166000 M⁻¹ s⁻¹	1.18 h	0.23 nM	5.48e-05 s⁻¹	238000 M⁻¹ s⁻¹	3.52 h	1.16 nM	0.000169 s⁻¹	145000 M⁻¹ s⁻¹	1.13 h	–	–	–	no binding (tested: 50nM)	no binding (tested: 50nM)	no binding (tested: 50nM)
H4H3374N (antibody, human IgG4, V domains shown, human IgG4 Fc (H4H prefix)) VH: QLQLQESGPGLVKPSETLSLTCTVSGGSITSSSYYWGWIRQPPGKGLEWIGSIYYRGSTNYNPSLKSRVTISVDSSKNQFYLKVSSVTAVDTAVYYCARQNGAARPSWFDPWGQGTLVTVSS VL: EIVLTQSPDTISLSPGERATLSCRASQSISSIYLAWYQQKPGQAPRLLIYGASSRVTGIPDRFSVSGSGTDFTLTISRLEPEDFAVYYCQHYGISPFTFGPGTKVDIR	0.26 nm	1.66 nM	0.000472 s⁻¹	284000 M⁻¹ s⁻¹	0.4 h	0.148 nM	8.93e-05 s⁻¹	600000 M⁻¹ s⁻¹	2.15 h	1.26 nM	0.000358 s⁻¹	283000 M⁻¹ s⁻¹	0.533 h	binds	binds	binds	no binding (tested: 50nM)	–	–
H4H3305N (antibody, human IgG4, V domains shown, human IgG4 Fc (H4H prefix)) VH: QLQLQESGPGLVKPSETLSLTCIVSGGSISSSSYYWGWIRQPPGKGLEWIGSLYYSGITFYNPSLKSRVTISVDTSKNQFSLTLTSVTAADTAVFYCARHRVMASSPFDHWGQGTLVTVSS VL: not shown	0.01 nm	1.82 nM	0.000111 s⁻¹	61200 M⁻¹ s⁻¹	1.73 h	0.248 nM	3.42e-05 s⁻¹	138000 M⁻¹ s⁻¹	5.63 h	1.81 nM	0.000109 s⁻¹	59900 M⁻¹ s⁻¹	1.77 h	–	–	–	no binding (tested: 50nM)	no binding (tested: 50nM)	no binding (tested: 50nM)
